Test results: US20250262316A1 (BIO THERA SOLUTIONS, published 2025)

T1: Lag3 (NCBI Reference Sequence: NP_002277.4) on Lag3-CHO cells (UniProt P18627 23-525, limits assumed)
T1 construct: whole, on cells
T1 sequence (looked up): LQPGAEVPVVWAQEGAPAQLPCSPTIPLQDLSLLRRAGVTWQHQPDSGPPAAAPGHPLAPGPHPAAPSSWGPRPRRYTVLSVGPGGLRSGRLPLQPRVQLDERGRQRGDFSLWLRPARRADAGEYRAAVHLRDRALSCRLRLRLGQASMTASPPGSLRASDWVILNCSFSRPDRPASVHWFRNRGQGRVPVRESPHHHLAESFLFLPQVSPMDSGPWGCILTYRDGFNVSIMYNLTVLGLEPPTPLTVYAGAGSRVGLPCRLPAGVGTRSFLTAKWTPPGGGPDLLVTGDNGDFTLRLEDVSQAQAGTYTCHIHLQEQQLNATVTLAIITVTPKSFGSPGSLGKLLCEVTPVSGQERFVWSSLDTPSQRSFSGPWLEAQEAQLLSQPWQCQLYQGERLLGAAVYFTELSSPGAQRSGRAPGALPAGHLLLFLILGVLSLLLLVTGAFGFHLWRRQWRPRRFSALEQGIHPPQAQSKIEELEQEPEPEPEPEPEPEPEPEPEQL

T2: B7-H3 on MDA-MB-468 cells (human, UniProt Q5ZPR3)
T2 construct: endogenous, on the cell surface
T2 sequence (cell surface antigen, looked up): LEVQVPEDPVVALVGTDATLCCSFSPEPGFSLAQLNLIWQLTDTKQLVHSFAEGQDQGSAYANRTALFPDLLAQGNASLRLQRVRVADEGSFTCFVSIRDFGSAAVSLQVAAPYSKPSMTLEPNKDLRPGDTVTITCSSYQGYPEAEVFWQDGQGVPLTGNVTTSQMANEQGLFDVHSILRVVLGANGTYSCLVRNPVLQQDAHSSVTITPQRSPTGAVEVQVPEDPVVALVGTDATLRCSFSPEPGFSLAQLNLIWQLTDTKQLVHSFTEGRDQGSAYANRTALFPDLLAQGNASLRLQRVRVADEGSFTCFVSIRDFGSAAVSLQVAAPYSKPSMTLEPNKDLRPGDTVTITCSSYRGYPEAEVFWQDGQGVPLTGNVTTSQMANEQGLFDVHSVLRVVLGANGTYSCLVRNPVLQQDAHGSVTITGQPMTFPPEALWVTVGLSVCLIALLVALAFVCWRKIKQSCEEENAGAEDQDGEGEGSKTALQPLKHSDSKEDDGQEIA


Assays:
[1] = target: T1, Lag3 (NCBI Reference Sequence: …); assay: flow cytometry on Lag3-CHO cells
[2] = target: T3, VISTA (NCBI Reference Sequence: NP_071436.1) on VISTA-CHO cells (UniProt Q9H7M9 33-311, limits assumed); assay: flow cytometry on VISTA-CHO cells
T3 construct: whole, on cells

[3] = target: T3, VISTA (NCBI Reference Sequence: …); assay: flow cytometry on VISTA-CHO cells; blank P3 0.1%; the filing says V1-V5 did not bind
hB7-H3-Fc = target: T4, hB7-H3-Fc; assay: ELISA on coated hB7-H3-Fc (2 ug/mL), HRP anti-human kappa secondary, A450, antibody from 300 nM in 3-fold dilutions; axis 'Concentration' has no unit, nM from p-1066
T4 construct: also called antigen hB7-H3-Fc

[4] = target: T5, Tim3 (NCBI Reference Sequence: NP_116171.3) on Tim3-CHO cells (UniProt Q8TDQ0 22-301, limits assumed); assay: flow cytometry on Tim3-CHO cells; blank P3 0.2%; the filing says V1-V5 did not bind
T5 construct: whole, on cells

[5] = target: T2, B7-H3 on MDA-MB-468 cells; assay: flow cytometry on MDA-MB-468 cells; blank V2-R 0.9%
[6] = target: T5, Tim3 (NCBI Reference Sequence: …); assay: flow cytometry on Tim3-CHO cells
[7] = target: T1, Lag3 (NCBI Reference Sequence: …); assay: flow cytometry on Lag3-CHO cells; blank P3 0.5%; the filing says V1-V5 did not bind

T4 sequence (fusion chain, as listed by the source limits assumed): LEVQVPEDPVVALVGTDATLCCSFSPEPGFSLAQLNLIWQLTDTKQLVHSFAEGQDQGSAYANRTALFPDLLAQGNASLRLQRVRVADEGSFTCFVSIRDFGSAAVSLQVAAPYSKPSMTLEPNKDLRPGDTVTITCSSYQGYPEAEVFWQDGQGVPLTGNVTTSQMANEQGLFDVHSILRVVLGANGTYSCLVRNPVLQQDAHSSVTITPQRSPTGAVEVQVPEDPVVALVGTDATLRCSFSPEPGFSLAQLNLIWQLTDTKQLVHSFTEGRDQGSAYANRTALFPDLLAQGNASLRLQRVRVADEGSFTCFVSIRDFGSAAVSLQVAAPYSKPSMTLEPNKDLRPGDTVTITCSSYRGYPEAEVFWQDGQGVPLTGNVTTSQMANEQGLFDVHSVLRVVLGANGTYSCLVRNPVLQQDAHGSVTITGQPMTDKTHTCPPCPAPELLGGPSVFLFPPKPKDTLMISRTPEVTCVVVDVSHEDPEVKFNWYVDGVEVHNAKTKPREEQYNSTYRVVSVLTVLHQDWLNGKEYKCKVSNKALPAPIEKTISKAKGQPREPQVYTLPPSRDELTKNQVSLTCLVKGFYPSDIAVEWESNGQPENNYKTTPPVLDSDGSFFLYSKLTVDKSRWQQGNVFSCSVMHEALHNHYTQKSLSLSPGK

binding result [1] | binding result [2] | % of cells in gate P3 at 100 nM [3] [%] | EC50 (hB7-H3-Fc) [nM] | % of cells in gate P3 at 100 nM [4] [%] | % of cells in gate V1-R at 0.411 nM [5] [%] | % of cells in gate V1-R at 1.23 nM [5] [%] | % of cells in gate V1-R at 3.7 nM [5] [%] | % of cells in gate V1-R at 11.11 nM [5] [%] | % of cells in gate V1-R at 33.33 nM [5] [%] | % of cells in gate V1-R at 100 nM [5] [%] | binding result [6] | % of cells in gate P3 at 100 nM [7] [%] | Binder
no binding (tested: 100 nM) | no binding (tested: 100 nM) | 1.8 | 2.66 | 1.8 | 1.2 | 1.3 | 60.1 | 97.8 | 99.7 | 99.4 | no binding (tested: 100 nM) | 5.6 | Antibody V2 (antibody, human IgG1, kappa, V domains shown, Humanized from chimeric antibody M1; also called humanized antibody V2) VH: EVQLVQSGAEVKKSGESLKISCKASGYTFTDYDINWVRQMPGKGLEWIGWIFPGDDTTKYNEKFKGQVTLSADKSTNTAYMQWSSLKASDTAMYYCARSPSFDYWGQGTLVTVSS VL: QIVLTQSPGTLSLSPGERATLSCSASSTIGFMYWYQQKPGQAPRRWIYDTSKLASGVPDRFSVSGSGTDYTLTISRLEPEDFAVYYCHQRSSYPTFGQGTKVEIKR
no binding (tested: 100 nM) | no binding (tested: 100 nM) | 0.9 | 3.95 | 1.7 | 1.4 | 8.6 | 92.7 | 99.5 | 99.6 | 99.7 | no binding (tested: 100 nM) | 3.2 | Antibody V1 (antibody, human IgG1, kappa, V domains shown, Humanized from chimeric antibody M1; also called humanized antibody V1) VH: EVQLVQSGAEVKKSGESLKISCKASGYTFTDYDINWVRQMPGKGLEWMGWIFPGDDTTKYNEKFKGQVTISADKSTNTAYLQWSSLKASDTAMYYCARSPSFDYWGQGTLVTVSS VL: QIVLTQSPGTLSLSPGERATLSCSASSTIGFMYWYQQKPGQAPRRWIYDTSKLASGVPDRFSVSGSGTDYTLTISRLEPEDFAVYYCHQRSSYPTFGQGTKVEIKR
no binding (tested: 100 nM) | no binding (tested: 100 nM) | 0.2 | 8.24 | 0.1 | 31.6 | 73.5 | 92.6 | 99.3 | 99.6 | 99.7 | no binding (tested: 100 nM) | 0.4 | Antibody V5 (antibody, human IgG1, kappa, V domains shown, Humanized from chimeric antibody M1; also called humanized antibody V5) VH: QVQLVQSGAEVKKPGASVKVSCKASGYTFTDYDINWVRQAPGQRLEWIGWIFPGDDTTKYNEKFKGRATLTADKSASTAYMELSSLRSEDTAVYYCARSPSFDYWGQGTLVTVSS VL: QIVLTQSPSSLSASVGDRVTITCSASSTIGFMYWYQQKPGKAPKRWIYDTSKLASGVPSRFSVSGSGTDYTLTISSLQPEDFATYYCHQRSSYPTFGQGTKVEIKR
